Reference: KR20190016466A

Columns and labels:
[1] = target: human FcRn (hFcRn) (human) (UniProt P55899); test: ELISA, antibody coated, hFcRn added, anti-6-His detection, pH 6.0; reference WT
[2] = target: human FcRn (hFcRn) (human) (UniProt P55899); test: SPR (XPR36), hFcRn on chip, antibody flowed, pH 6.0
[3] = target: human FcRn (hFcRn) (human) (UniProt P55899); test: ELISA, antibody coated, hFcRn added, anti-6-His detection, pH 7.4; reference WT
[4] = target: human FcRn (hFcRn) (human) (UniProt P55899); test: SPR (XPR36), hFcRn on chip, antibody flowed, pH 7.4

Sequence of UniProt P55899 (P55899 24-297 limits assumed, form in doubt): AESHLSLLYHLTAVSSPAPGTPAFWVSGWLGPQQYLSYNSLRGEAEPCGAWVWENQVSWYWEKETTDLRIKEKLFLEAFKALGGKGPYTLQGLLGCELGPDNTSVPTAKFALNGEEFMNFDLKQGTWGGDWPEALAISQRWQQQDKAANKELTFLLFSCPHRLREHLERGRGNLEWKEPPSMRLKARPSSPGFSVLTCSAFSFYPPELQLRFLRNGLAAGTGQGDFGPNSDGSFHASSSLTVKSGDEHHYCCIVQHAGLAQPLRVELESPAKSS

Substance: HN (H462K/N463F) 변이 SO57 항체 (antibody)
- fold increase of affinity over WT [1]: 18 배 (fold)
- RU [2]: 195 RU
- fold increase of affinity over WT [3]: 17 배 (fold)
- RU [4]: 100 RU

Substance: MN (M457L/N463S) 변이 SO57 항체 (antibody)
- fold increase of affinity over WT [1]: 16 배 (fold)
- RU [2]: 180 RU
- fold increase of affinity over WT [3]: 15 배 (fold)
- RU [4]: 70 RU

Substance: MST (M281Y/S283T/T285E) 변이 SO57 항체 (antibody)
- fold increase of affinity over WT [1]: 12 배 (fold)
- RU [2]: 140 RU
- fold increase of affinity over WT [3]: 2 배 (fold)
- RU [4]: 20 RU
